Laboratory results published in the Immune Epitope Database (IEDB).
pKd: −log10 of the molar value.

Tests used:
Experiment in all cases: IEDB peptide-MHC binding, purified MHC/competitive/radioactivity; filed as Kd, often an IC50 or EC50 that approximates it; ≥ and ≤ were set here for values at or beyond the usual limits of such assays
HLA-A*03:01 = molecular target: HLA-A*03:01
HLA-A*33:01 = molecular target: HLA-A*33:01
HLA-A*11:01 = molecular target: HLA-A*11:01
HLA-A*68:01 = molecular target: HLA-A*68:01
HLA-A*31:01 = molecular target: HLA-A*31:01
HLA-A*02:06 = details: source organism: Dengue virus 1 Nauru/West Pac/1974
[1] = source organism: Vaccinia virus WR
[2] = source organism: Lassa virus Josiah

Sequence | pKd (HLA-A*03:01; [1]) | pKd (HLA-A*33:01; [1]) | pKd (HLA-A*11:01; [1]) | pKd (HLA-A*68:01; [1]) | pKd (HLA-A*31:01; [1]) | pKd (HLA-A*03:01; [2]) | pKd (HLA-A*33:01; [2]) | pKd (HLA-A*11:01; [2]) | pKd (HLA-A*68:01; [2]) | pKd (HLA-A*31:01; [2]) | pKd (HLA-A*02:06)
YTYDRVDIY | 6.13 | ≤ 4.44 | 9.47 | 8.72 | 5.03 | – | – | – | – | – | –
NSKYSYELY | ≤ 4.48 | ≤ 4.33 | 4.98 | 7.99 | ≤ 4.29 | – | – | – | – | – | –
DAKNDDWKKY | ≤ 4.15 | ≤ 4.15 | ≤ 4.16 | ≤ 4.15 | ≤ 4.15 | – | – | – | – | – | –
QLLRLMADK | 7.21 | ≤ 4.34 | 6.46 | ≤ 4.66 | 5.59 | – | – | – | – | – | –
KLVKSLVDK | 7.46 | ≤ 4.11 | 7.13 | ≤ 4.11 | ≤ 4.38 | – | – | – | – | – | –
GLLDSIKMIY | 7.34 | 5.54 | 5.47 | 6.09 | 5.81 | – | – | – | – | – | –
YLINPNILY | 5.82 | ≤ 4.35 | 6.42 | 5.49 | ≤ 4.11 | – | – | – | – | – | –
KSINKVYGR | 6.43 | 5.47 | 8.62 | 7.81 | 8.98 | – | – | – | – | – | –
VSLVKKNKKR | ≤ 4.52 | 5.16 | 5.19 | ≤ 4.32 | 6.49 | – | – | – | – | – | –
DQYKDLCHMH | – | – | – | – | – | ≤ 4.15 | ≤ 4.15 | ≤ 4.16 | ≤ 4.15 | ≤ 4.15 | –
ELGFNYPEY | ≤ 4.40 | ≤ 4.11 | ≤ 4.18 | 5.05 | ≤ 4.11 | – | – | – | – | – | –
SFKLILAEY | ≤ 4.11 | 4.93 | 4.87 | ≤ 4.59 | 6.17 | – | – | – | – | – | –
NMVSDTIMKR | 5.38 | 6.08 | 6.92 | 7.04 | 6.51 | – | – | – | – | – | –
ILKINSVKY | 6.08 | 4.89 | 4.79 | 5.74 | 5.88 | – | – | – | – | – | –
SSSVDVDIY | ≤ 4.19 | ≤ 4.14 | ≤ 4.36 | 5.53 | 5.56 | – | – | – | – | – | –
HQIFGTAYGV | – | – | – | – | – | – | – | – | – | – | 7.69
ILQLIRHGR | 5.84 | 8.58 | 6.14 | 7.12 | 9.01 | – | – | – | – | – | –
